In patent CN116472284A:

Columns and labels:
[1] = molecular target: SARS-CoV-2 spike on live SARS-CoV-2 virus (isolate France/IDF0372/2020) (SARS-CoV-2) (UniProt P0DTC2); assay: cell-based or functional assay
[2] = molecular target: SARS-CoV-2 spike ectodomain, prefusion-stabilised trimer (刺突 S2P) (SARS-CoV-2); assay: SPR, captured spike S2P
[3] = molecular target: SARS-CoV-2 spike ectodomain, prefusion-stabilised trimer (刺突 S2P) (SARS-CoV-2); assay: SPR, captured spike S2P, biphasic dissociation, fast phase kd1
[4] = molecular target: SARS-CoV-2 spike ectodomain, prefusion-stabilised trimer (刺突 S2P) (SARS-CoV-2); assay: SPR, captured spike S2P, biphasic dissociation, slow phase kd2
[5] = molecular target: SARS-CoV-2 spike ectodomain, prefusion-stabilised trimer (刺突 S2P) (SARS-CoV-2)
[6] = molecular target: SARS-CoV-2 spike ectodomain, prefusion-stabilised trimer (刺突 S2P) (SARS-CoV-2); assay: SPR, captured spike S2P, no measurable dissociation in ten minutes

## Nb6-tri (trivalent Nb6 with two 20 amino acid linkers) (VHH)
[1]
  mean IC50, plaque reduction neutralisation of live SARS-CoV-2 on VeroE6 cells: 0.16 nM
[2]
  fold gain in KD against monovalent Nb6: > 200000 fold
[3]
  koff: 0.029 s⁻¹
[4]
  koff: < 1e-06 s⁻¹

## mNb6 (affinity-matured Nb6, I27Y and P105Y) (VHH)
[5]
  EC50: 0.056 nM

## mNb6-tri (trivalent mNb6 with 20 amino acid linkers) (VHH)
[2]
  Kd: < 0.001 nM
  dissociation half-life t1/2: > 8 天 (days)
[6]
  koff: < 1e-06 s⁻¹
